Source: patent US20240076332A1

Molecular target: cell surface bound heterodimeric receptor protein comprising a tyrosine kinase FGFR1c and a beta-Klotho protein (UniProt P11362)
Assay: cell-based or functional assay

Chain of UniProt P11362 (P11362 22-822, chain 1 of 2): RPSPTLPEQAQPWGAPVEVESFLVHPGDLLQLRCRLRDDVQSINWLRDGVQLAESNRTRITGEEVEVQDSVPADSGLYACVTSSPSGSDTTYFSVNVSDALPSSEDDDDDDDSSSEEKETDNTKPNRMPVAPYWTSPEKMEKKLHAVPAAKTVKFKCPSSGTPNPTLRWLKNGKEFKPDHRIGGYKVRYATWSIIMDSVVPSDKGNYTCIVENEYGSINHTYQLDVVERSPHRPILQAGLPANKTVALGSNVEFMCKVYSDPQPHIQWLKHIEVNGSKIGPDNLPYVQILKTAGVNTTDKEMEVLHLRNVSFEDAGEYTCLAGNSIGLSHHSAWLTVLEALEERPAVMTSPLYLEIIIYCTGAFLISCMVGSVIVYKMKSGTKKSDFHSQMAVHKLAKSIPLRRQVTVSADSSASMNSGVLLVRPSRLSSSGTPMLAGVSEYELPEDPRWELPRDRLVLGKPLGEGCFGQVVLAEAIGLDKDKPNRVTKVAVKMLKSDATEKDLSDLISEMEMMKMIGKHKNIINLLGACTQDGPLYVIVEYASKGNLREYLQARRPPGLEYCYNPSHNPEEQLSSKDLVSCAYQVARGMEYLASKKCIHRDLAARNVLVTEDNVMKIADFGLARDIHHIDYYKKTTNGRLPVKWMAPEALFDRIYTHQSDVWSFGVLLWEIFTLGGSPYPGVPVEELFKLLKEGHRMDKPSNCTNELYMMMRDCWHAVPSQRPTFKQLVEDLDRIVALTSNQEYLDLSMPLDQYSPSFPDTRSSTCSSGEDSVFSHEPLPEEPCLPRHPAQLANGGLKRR
Chain of UniProt P11362 (Q86Z14 whole entry, chain 2 of 2, further chain): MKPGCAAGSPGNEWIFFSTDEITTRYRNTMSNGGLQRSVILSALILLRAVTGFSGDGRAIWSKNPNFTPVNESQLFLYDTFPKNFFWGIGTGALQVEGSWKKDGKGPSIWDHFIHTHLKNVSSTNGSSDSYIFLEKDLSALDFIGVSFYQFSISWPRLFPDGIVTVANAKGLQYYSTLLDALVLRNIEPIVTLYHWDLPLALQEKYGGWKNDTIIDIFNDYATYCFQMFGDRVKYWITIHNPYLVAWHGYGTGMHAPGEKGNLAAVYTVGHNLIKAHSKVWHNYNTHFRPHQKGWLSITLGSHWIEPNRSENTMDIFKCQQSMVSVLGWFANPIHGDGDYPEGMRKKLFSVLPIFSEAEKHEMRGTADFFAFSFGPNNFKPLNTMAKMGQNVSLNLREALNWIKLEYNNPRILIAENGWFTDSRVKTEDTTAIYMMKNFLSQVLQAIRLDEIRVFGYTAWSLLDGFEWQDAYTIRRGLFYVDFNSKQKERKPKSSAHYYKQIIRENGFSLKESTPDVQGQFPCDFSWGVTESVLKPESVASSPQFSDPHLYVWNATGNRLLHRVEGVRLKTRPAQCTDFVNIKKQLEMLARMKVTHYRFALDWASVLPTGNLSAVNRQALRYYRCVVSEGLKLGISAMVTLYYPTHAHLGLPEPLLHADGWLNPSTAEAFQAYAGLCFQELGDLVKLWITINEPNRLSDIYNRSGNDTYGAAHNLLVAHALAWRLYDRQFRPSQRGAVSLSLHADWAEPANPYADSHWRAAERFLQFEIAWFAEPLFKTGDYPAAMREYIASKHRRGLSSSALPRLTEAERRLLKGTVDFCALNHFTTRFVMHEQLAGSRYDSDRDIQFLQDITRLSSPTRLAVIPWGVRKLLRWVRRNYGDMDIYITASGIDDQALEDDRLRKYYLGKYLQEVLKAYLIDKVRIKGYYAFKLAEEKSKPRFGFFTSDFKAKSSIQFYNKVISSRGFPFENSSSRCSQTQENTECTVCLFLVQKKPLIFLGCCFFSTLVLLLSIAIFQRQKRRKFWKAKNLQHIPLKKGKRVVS

- EC50 of firefly luciferase reporter-gene response (Gal4-Elk-1), HEK293 cells with FGFR1c and optimized synthetic beta-Klotho gene, treated with increasing concentrations of human FGF21: 0.003 µg/mL
- EC50 of firefly luciferase reporter-gene response, HEK293 cells with FGFR1c and native beta-Klotho gene, freeze, thaw and use format: 0.024 µg/mL
- EC50 of firefly luciferase reporter-gene response, HEK293 cells with FGFR1c and optimized synthetic beta-Klotho gene, freeze, thaw and use format: 0.007 µg/mL
- EC50 of firefly luciferase reporter-gene response, Jurkat cells transfected with the native beta-Klotho gene (Table 1): 0.172 µg/mL
- EC50 of firefly luciferase reporter-gene response, Jurkat cells with FGFR1c and native beta-Klotho gene, freeze, thaw and use format: 0.17 µg/mL
Substance: human FGF21 (from UniProt Q9NSA1 29-209) (ligand)
